Test [1] concerns the target T1, IL-17RA residues 361-866 (SEFIR domain and SEFEX, as part of the IL-17RB-RA fusion) (human, UniProt Q96F46-1 361-866).
T1 sequence: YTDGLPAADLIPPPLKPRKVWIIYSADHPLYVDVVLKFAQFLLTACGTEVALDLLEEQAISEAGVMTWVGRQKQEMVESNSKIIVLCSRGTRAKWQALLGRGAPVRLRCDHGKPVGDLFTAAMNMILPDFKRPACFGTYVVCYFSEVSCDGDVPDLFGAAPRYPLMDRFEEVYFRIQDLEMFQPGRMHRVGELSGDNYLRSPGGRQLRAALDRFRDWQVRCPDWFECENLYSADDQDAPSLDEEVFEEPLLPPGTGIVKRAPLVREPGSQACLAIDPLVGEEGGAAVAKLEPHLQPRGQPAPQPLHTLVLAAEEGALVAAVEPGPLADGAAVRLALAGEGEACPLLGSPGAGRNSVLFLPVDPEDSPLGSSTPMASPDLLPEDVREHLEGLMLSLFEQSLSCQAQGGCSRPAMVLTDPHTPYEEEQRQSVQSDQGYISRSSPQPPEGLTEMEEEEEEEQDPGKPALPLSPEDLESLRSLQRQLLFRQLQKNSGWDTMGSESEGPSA
Kind of test: cryo-EM structure.

Test [2] has as its target T2, ACT1 residues 372-574 (wild type) (human, UniProt O43734-1 372-574).
T2 sequence: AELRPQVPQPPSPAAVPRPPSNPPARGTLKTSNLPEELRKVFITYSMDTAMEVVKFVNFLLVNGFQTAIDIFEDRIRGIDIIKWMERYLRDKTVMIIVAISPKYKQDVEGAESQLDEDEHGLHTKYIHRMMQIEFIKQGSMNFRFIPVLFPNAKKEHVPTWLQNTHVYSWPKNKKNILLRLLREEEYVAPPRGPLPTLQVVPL
Put plainly: SEC.

The target of test [3] is T2, ACT1 residues 372-574 (wild type). Kind of test: negative-stain EM.

Changes are numbered by the printed parent chain. Names and notes keep the numbering of the source.

B1: IL-17RB residues 328-484 (SEFIR domain, as part of the IL-17RB-RA fusion) (domain or fragment)
chain: LLPPIKVLVVYPSEICFHHTICYFTEFLQNHCRSEVILEKWQKKKIAEMGPVQWLATQKKAADKVVFLLSNDVNSVCDGTCGKSEGSPSENSQDLFPLAFNLFCSDLRSQIHLHKYVVVYFREIDTKDDYNALSVCPKYHLMKDATAFCAELLHVKQ
Regarding B1, the binding result in test [1] is given as “binds”.

B2: IL-17RB-RA fusion (IL-17RB residues 328-484, 16-residue linker, IL-17RA residues 361-866) (other)
chain: LLPPIKVLVVYPSEICFHHTICYFTEFLQNHCRSEVILEKWQKKKIAEMGPVQWLATQKKAADKVVFLLSNDVNSVCDGTCGKSEGSPSENSQDLFPLAFNLFCSDLRSQIHLHKYVVVYFREIDTKDDYNALSVCPKYHLMKDATAFCAELLHVKQGGGSGGGSGGGSGGGSYTDGLPAADLIPPPLKPRKVWIIYSADHPLYVDVVLKFAQFLLTACGTEVALDLLEEQAISEAGVMTWVGRQKQEMVESNSKIIVLCSRGTRAKWQALLGRGAPVRLRCDHGKPVGDLFTAAMNMILPDFKRPACFGTYVVCYFSEVSCDGDVPDLFGAAPRYPLMDRFEEVYFRIQDLEMFQPGRMHRVGELSGDNYLRSPGGRQLRAALDRFRDWQVRCPDWFECENLYSADDQDAPSLDEEVFEEPLLPPGTGIVKRAPLVREPGSQACLAIDPLVGEEGGAAVAKLEPHLQPRGQPAPQPLHTLVLAAEEGALVAAVEPGPLADGAAVRLALAGEGEACPLLGSPGAGRNSVLFLPVDPEDSPLGSSTPMASPDLLPEDVREHLEGLMLSLFEQSLSCQAQGGCSRPAMVLTDPHTPYEEEQRQSVQSDQGYISRSSPQPPEGLTEMEEEEEEEQDPGKPALPLSPEDLESLRSLQRQLLFRQLQKNSGWDTMGSESEGPSA
On to B2, for which, in test [2], the binding result is “binds”.

B3: IL-17RC-RA fusion (IL-17RC residues 510-705, 3x(GGGS) linker, IL-17RA residues 361-866) (other)
chain: ARGRAALLLYSADDSGFERLVGALASALCQLPLRVAVDLWSRRELSAQGPVAWFHAQRRQTLQEGGVVVLLFSPGAVALCSEWLQDGVSGPGAHGPHDAFRASLSCVLPDFLQGRAPGSYVGACFDRLLHPDAVPALFRTVPVFTLPSQLPDFLGALQQPRAPRSGRLQERAEQVSRALQPALDSYFHPPGTPAPGGGGSGGGSGGGSYTDGLPAADLIPPPLKPRKVWIIYSADHPLYVDVVLKFAQFLLTACGTEVALDLLEEQAISEAGVMTWVGRQKQEMVESNSKIIVLCSRGTRAKWQALLGRGAPVRLRCDHGKPVGDLFTAAMNMILPDFKRPACFGTYVVCYFSEVSCDGDVPDLFGAAPRYPLMDRFEEVYFRIQDLEMFQPGRMHRVGELSGDNYLRSPGGRQLRAALDRFRDWQVRCPDWFECENLYSADDQDAPSLDEEVFEEPLLPPGTGIVKRAPLVREPGSQACLAIDPLVGEEGGAAVAKLEPHLQPRGQPAPQPLHTLVLAAEEGALVAAVEPGPLADGAAVRLALAGEGEACPLLGSPGAGRNSVLFLPVDPEDSPLGSSTPMASPDLLPEDVREHLEGLMLSLFEQSLSCQAQGGCSRPAMVLTDPHTPYEEEQRQSVQSDQGYISRSSPQPPEGLTEMEEEEEEEQDPGKPALPLSPEDLESLRSLQRQLLFRQLQKNSGWDTMGSESEGPSA
With B3, the binding result in test [3] is recorded as “binds”.

B4: ACT1 residues 372-574 Y558F (domain or fragment)
chain: T2 sequence with Y187F
Regarding B4, the binding result in test [1] is reported as “binds”.

Source of the values: article PMC12828022 (Nature Communications, 2025).
